Consider two molecules from US20220324970A1 (Janssen / Centocor, published 2022).

The EC50 is the concentration giving half of the maximal effect. Lower therefore signals an effect from little substance. As a reminder, the Kd is a measure of binding affinity in units of concentration. A higher Kd goes with a looser complex. The term kon denotes the second-order rate constant of association. A lower kon goes with slower complex formation. One may read the koff as the first-order rate constant of dissociation. Lower therefore signals slow dissociation.

Assay [1] addresses T1, human pIgR, full-length, on cells (human, UniProt P01833 19-764). Nature of the assay: cell-based or functional assay.
Assay [2] has as its target T1, human pIgR, full-length, on cells. Nature of the assay: cell-based or functional assay. This is another data set of the same source.
Assay [3] shares this target. The assay can be described thus: cell-based or functional assay. This is another data set of the same source.
For assay [4] the target is unchanged. Nature of the assay: flow cytometry on MDCK-hpIgR cells. A general note: Flow cytometry measures light scatter and fluorescence of single cells or particles in a stream.
Protocol: (§1) Flow Cytometry was performed as follows. To test whether VHH-mono-Fc molecules recognize cell-surface hpIgR, Madin-Darby canine kidney (MDCK) cells engineered to express full-length hpIgR were used. Cells were cultured in Dulbecco's modified Eagle's medium containing 10% fetal calf serum at 37° C. with 5% CO₂. Cells were split into equal fractions (≈70,000 cells) and incubated with increasing concentrations of VHH-mono-Fc molecules for 30 min at 4 C. […] Cells were washed twice with cold staining buffer, resuspended in running buffer and analyzed with an iQue Screener (IntelliCyt Corporation). Binding was assessed by RL1 (A647) Geomeans from the live cell population and EC50 was calculated by fitting log VHH concentration versus MFI in Prism (Graphpad).
Assay [5] has as its target T2, human pIgR extracellular domain (ECD) (human, UniProt P01833 19-638).
T2 construct: also called hpIgR ECD
The assay can be described thus: BLI; summary table, repeats Table 1. (BLI is a label-free optical method that tracks binding on a fibre tip over time.)
Target sequence in this assay (P01833 other isoform, or with tags, fused parts or gaps): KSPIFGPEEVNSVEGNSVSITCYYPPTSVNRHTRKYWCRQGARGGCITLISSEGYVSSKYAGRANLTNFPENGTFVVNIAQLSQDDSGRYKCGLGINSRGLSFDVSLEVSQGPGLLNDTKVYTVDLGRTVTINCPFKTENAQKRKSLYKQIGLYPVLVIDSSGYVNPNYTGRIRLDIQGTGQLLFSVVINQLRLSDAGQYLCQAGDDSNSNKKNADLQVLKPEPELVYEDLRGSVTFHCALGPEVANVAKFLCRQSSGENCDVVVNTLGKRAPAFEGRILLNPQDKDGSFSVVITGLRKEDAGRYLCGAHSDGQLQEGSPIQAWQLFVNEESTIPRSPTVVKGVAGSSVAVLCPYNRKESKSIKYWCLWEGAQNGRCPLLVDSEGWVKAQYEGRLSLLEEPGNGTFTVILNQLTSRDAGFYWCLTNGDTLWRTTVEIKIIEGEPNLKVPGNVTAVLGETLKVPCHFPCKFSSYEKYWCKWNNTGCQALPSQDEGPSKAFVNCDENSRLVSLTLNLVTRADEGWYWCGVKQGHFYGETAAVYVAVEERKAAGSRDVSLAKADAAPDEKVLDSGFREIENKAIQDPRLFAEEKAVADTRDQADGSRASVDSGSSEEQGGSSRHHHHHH

Assay [6] deals with T2, human pIgR extracellular domain (ECD). The assay can be described thus: BLI; summary table, repeats Table 1. The source holds these as a separate data set.
Target sequence in this assay (P01833 other isoform, or with tags, fused parts or gaps): as above
For assay [7] the target is unchanged. Nature of the assay: BLI (Octet), VHH-mono-Fc and hpIgR ectodomain.
Target sequence in this assay (P01833 other isoform, or with tags, fused parts or gaps): as above
Assay [8] shares this target. The assay can be described thus: ECL (MSD), hpIgR-ECD coated, anti-Fc detection.
Assay [9] has the same target. The assay can be described thus: ECL (MSD), hpIgR-ECD coated, anti-VHH detection.
Target sequence in this assay (P01833 other isoform, or with tags, fused parts or gaps): as above
Protocol: To check whether VHH recognizes a buried epitope on pIgR, EC₅₀ values were measured for VHH-mono-Fc molecules binding to hpIgR-ECD protein by electrochemiluminescence using two different detection antibodies, an anti-Fc antibody and an anti-VHH antibody. pIgR ECD (10 μg/ml in PBS) was coated on high-bind MSD plates for 2 hours at RT with 1000 rpm, incubated with blocking buffer for 1 hour at RT, incubated with VHH-mono-Fc molecules (increasing concentrations in PBS) for 2 hours at RT with 1000 rpm, washed 3× with PBT, incubated with ruthenylated secondary antibody (2 μg/ml in PBS) for 1 hour at RT with 1000 rpm, washed 3× with PBT and read plates in 40 ul reading buffer using the MSD imager. EC50 was calculated by fitting log VHH concentration versus log ECLU in Prism (Graphpad). The increase in EC₅₀ (>50-fold) due to anti-VHH detection was used as a measure to determine whether VHH recognized buried epitope on pIgR.
Assay [10] shares this target. Nature of the assay: ECL (MSD), anti-VHH detection against anti-Fc detection.
Target sequence in this assay (P01833 other isoform, or with tags, fused parts or gaps): as above
Assay [11] has the same target. Nature of the assay: BLI (Octet RED384), 1:1 fit, 25 C, PBS.
Target sequence in this assay (P01833 other isoform, or with tags, fused parts or gaps): as above
The target in assay [12] is T3, human pIgR extracellular domain 4-domain 5 (D4-D5) (human, UniProt P01833 350-565).
T3 construct: HIS-tagged construct made in HEK293 cells; also called hpIgR domains 4-5
T3 chain: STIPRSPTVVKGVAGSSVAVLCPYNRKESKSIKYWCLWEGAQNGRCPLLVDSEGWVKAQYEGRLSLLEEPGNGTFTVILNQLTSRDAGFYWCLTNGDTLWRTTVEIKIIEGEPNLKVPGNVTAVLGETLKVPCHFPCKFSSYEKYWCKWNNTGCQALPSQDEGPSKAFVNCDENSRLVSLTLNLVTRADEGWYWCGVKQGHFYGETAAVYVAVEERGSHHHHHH
Nature of the assay: BLI (Octet RED384), 1:1 fit, 25 C, PBS.

Assay [13] has as its target T1, human pIgR, full-length, on cells. The assay can be described thus: flow cytometry on MDCK-hpIgR cells; summary table, repeats Table 1.
Protocol: as §1
For assay [14] the target is unchanged. Described as above. This is another data set of the same source.
Protocol: as §1
Assay [15] addresses T2, human pIgR extracellular domain (ECD). Nature of the assay: BLI (Octet RED384), 1:1 fit, 25 C, PBS; column kdis.
Assay [16] addresses T3, human pIgR extracellular domain …. The assay is described as above.
Assay [17] concerns the target T4, hpIgR_D3.
T4 construct: HIS-tagged construct from HEK293 cells; also called human pIgR extracellular domain 3 (D3); hD3
T4 HIS-tagged domain construct: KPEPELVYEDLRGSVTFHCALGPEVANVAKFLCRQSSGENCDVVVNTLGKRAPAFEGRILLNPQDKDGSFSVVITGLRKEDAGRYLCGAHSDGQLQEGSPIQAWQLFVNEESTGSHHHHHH
The assay can be described thus: ECL (MSD) heat map, HIS-tagged construct captured via anti-HIS, anti-human-Fc detection.

Assay [18] addresses T5, human pIgR extracellular domain 2 (D2) (human, UniProt P01833 128-242).
T5 construct: HIS-tagged construct made in HEK293 cells; also called hpIgR domain 2
Described as above.

Assay [19] deals with T6, hpIgR_D2-D3.
T6 construct: HIS-tagged construct from HEK293 cells; also called human pIgR extracellular domain 2-domain 3 (D2-D3); hD2-D3
T6 HIS-tagged domain construct: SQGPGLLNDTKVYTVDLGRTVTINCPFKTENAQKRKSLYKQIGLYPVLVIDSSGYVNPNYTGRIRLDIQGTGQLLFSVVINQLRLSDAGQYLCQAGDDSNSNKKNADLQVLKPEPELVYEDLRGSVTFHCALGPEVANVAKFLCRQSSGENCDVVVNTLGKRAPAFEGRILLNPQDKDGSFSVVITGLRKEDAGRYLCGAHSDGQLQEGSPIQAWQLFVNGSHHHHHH
Described as above.
Protocol: (§2) The Electrochemiluminescence assay was performed as follows. A meso-scale discovery (MSD) platform was used for conducting epitope mapping and epitope burial studies. To test the binding of VHH-mono-Fc molecules to purified pIgR protein constructs, Streptavidin MSD plates were coated with a biotinylated anti-HIS antibody (2 μg/ml in PBS) for 1 hour at RT with 1000 rpm, washed 3× with PBT (PBS+0.1% Tween-20), incubated with blocking buffer for 1 hour at RT, incubated with His-tagged pIgR proteins (10 μg/ml in PBS) for 2 hours at RT with 1000 rpm, washed 3× with PBT, incubated with VHH-mono-Fc molecules (100 μg/ml in PBS) for 2 hours at RT with 1000 rpm, washed 3× with PBT, incubated with ruthenylated-anti-human-Fc antibody (2 μg/ml in PBS) for 1 hour at RT with 1000 rpm, washed 3× with PBT and read plates in 40 ul reading buffer using the MSD imager. ECLU values were plotted as a heatmap.

For assay [20], the target named is T7, human pIgR extracellular domain 1 (D1) (human, UniProt P01833 19-127).
T7 construct: HIS-tagged construct made in HEK293 cells; also called hpIgR domain-1
The assay is described as above.
Protocol: as §2

The target in assay [21] is T8, human pIgR extracellular domain 1-domain 2 (D1-D2) (human, UniProt P01833 19-240).
T8 construct: HIS-tagged construct made in HEK293 cells
The assay is described as above.
Protocol: as §2

The target in assay [22] is T7, human pIgR extracellular domain 1 (D1). The description is as above. The source holds these as a separate data set.
The target in assay [23] is T9, human pIgR extracellular domain 5 (D5) (human, UniProt P01833 460-565).
T9 construct: HIS-tagged construct made in HEK293 cells; also called hpIgR domain 5
The description is as above.

Assay [24] deals with T5, human pIgR extracellular domain 2 (D2). The description is as above. This is another data set of the same source.
Protocol: as §2
For assay [25], the target named is T3, human pIgR extracellular domain …. The assay is described as above.
Protocol: as §2

Where two headings read alike, the source gives them in different places.

T1 sequence (P01833 19-764): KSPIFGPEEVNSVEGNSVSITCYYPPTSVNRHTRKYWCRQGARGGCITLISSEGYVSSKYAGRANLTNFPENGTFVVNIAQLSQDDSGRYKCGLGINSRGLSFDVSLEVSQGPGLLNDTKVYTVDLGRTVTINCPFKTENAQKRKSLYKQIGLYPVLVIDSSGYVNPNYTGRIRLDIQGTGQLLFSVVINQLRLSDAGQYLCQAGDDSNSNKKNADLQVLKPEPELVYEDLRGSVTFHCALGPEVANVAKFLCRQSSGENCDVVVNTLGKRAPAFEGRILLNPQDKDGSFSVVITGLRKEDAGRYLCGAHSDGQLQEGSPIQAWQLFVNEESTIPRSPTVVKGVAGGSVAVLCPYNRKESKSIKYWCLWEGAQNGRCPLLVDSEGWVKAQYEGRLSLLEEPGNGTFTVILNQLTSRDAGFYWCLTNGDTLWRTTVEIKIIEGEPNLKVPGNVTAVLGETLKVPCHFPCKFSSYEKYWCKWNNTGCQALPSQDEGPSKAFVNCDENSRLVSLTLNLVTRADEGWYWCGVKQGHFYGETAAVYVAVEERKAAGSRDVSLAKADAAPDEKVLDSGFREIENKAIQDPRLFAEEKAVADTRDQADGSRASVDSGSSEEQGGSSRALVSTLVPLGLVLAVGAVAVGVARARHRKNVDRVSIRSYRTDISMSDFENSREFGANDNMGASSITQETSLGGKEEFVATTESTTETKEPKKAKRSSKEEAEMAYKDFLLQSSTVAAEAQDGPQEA

B1: VHH12-linker-mono-Fc protein (Fc fusion)
chain: QVQLVETGGGLVQAGDSLRLSCAASGRTLSFNTYAMGWFRQAPGKEREFVASITWNGGSTSYADSVKGRFTITRDNAKNTATLRMNSLQPDDTAVYYCAAARYYVSGTYFPANYWGQGTQVTVSSEPKTPKPQPQPQLQPQPNPTTESKSPKSPAPELLGGPSVFLFPPKPKDTLMISRTPEVTCVVVDVSHEDPEVKFNWYVDGVEVHNAKTKPREEQYNSTYRVVSVLTVLHQDWLNGKEYKCKVSNKALPAPIEKTISKAKGQPREPQVYTKPPSREEMTKNQVSLSCLVKGFYPSDIAVEWESNGQPENNYKTTVPVLDSDGSFRLASYLTVDKSRWQQGNVFSCSVMHEALHNHYTQKSLSLSPGK
notes: made in CHO cells; also called VHH12-mono-Fc; hpIgR_266
On to B1, for which, in assay [1], the “increase in their apical concentration relative to control VHH (MDCK-hpIgR monolayers)” value was more than 10 fold. In addition, the “Transcytosis (Fold Incr.)” value in [2] was 38.6 fold. Further, the “For. Trans. (Fold Incr.)” value in assay [3] is 29.5 fold. The “Rev. Trans (Fold Incr.)” value in assay [3] stood at 11.7 fold. Further, the EC50 in assay [4] turned out to be 4.6 nM; in [8], 0.5 nM; in assay [9], 0.2 nM; in [13] it was 4.6 nM; in assay [14] it was 4.6 nM. Moreover, the Kd worked out at 34 nM in assay [5]; 34 nM in [6]; 34 nM in [7]; 43.3 nM in [11]; 73.1 nM in assay [12]. For the same molecule, the “Fold change in EC50” value in [10] was found to be 0.4 fold. The on-rate (kon) in [11] worked out at 38300 M⁻¹ s⁻¹; in assay [12], 38500 M⁻¹ s⁻¹. For the same molecule, the figures for the koff in [15] and in assay [16] were 0.00166 s⁻¹ and 0.00281 s⁻¹, respectively. The binding result in assay [17], in assay [18], in [19], in assay [20] and in assay [21] was “no binding (tested: 100 ug/ml (single concentration))” in each case.

B2: VHH1 (Fc fusion)
VHH-linker-mono-Fc chain: QVQLVESGGGLVQAGGSLKLACAAPGLTFSSYRMGWFRQAPGQEREFVAAIDWNGRGTYYRYYADSVKGRSTISRDNAKNTMYLQMNSLKPEDTAVYYCAAGSIDLNWYGGMDYWGQGTQVTVSSEPKTPKPQPQPQLQPQPNPTTESKSPKSPAPELLGGPSVFLFPPKPKDTLMISRTPEVTCVVVDVSHEDPEVKFNWYVDGVEVHNAKTKPREEQYNSTYRVVSVLTVLHQDWLNGKEYKCKVSNKALPAPIEKTISKAKGQPREPQVYTKPPSREEMTKNQVSLSCLVKGFYPSDIAVEWESNGQPENNYKTTVPVLDSDGSFRLASYLTVDKSRWQQGNVFSCSVMHEALHNHYTQKSLSLSPGK
notes: Control VHH; also called mpIgR_011; VHH1-linker-mono-Fc protein
With B2, the binding result in assay [22], in [23], in assay [21], in assay [24] and in assay [25] was “no binding (tested: 100 ug/ml (single concentration))” in each case.
